According to PMC10545747, “Development of cyclopeptide inhibitors of cGAS targeting protein-DNA interaction and phase separation”:

Experiments:
hcGAS-FL (D191R) = hcGAS-FL (D191R) (Homo sapiens, UniProt Q8N884 1-522, D191R); assay: fluorescence polarization; D191R did not interfere with dsDNA binding; XQ2 inhibition markedly reduced; FP: 20 mM HEPES pH 7.5, 125 mM KCl, 10 mM MgCl2; 300 nM cGAS, 40 nM FAM-ISD; temperature not stated. MST conditions not given in the material; conditions: protein: recombinant; tags: 6xHis-SUMO removed by ULP1; label: 5'-FAM on sense strand; blunt
Chain of hcGAS-FL (D191R) (Q8N884 whole entry D191R): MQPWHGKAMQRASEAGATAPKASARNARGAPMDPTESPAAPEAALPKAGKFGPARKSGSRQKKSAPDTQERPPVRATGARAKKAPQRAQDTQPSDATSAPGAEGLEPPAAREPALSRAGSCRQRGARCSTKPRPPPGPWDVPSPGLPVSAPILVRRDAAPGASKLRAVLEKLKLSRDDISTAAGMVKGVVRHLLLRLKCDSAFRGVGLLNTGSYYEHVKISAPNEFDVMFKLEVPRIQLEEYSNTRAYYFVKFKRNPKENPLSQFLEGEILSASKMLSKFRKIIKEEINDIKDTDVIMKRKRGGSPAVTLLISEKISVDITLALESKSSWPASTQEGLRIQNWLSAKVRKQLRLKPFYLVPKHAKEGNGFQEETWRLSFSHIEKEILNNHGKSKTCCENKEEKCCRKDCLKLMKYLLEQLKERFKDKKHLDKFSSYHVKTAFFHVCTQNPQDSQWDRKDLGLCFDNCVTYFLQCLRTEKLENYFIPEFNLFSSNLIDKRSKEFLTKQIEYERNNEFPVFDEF

hcGAS-FL = hcGAS-FL (Homo sapiens, UniProt Q8N884 1-522); assay: fluorescence polarization; 300 nM protein, 40 nM DNA; XQ2 competes with IC50 19.2 ± 6.7 uM (inhibitor value, not DNA affinity); FP: 20 mM HEPES pH 7.5, 125 mM KCl, 10 mM MgCl2; 300 nM cGAS, 40 nM FAM-ISD; temperature not stated. MST conditions not given in the material; conditions: protein: recombinant; tags: 6xHis-SUMO removed by ULP1; label: 5'-FAM on sense strand; blunt
Chain of hcGAS-FL (Q8N884 whole entry): as the sequence (Q8N884 whole entry D191R) above, with R191D counted along it

B1: 45-bp FAM-ISD (dsDNA)
DNA 1: TACAGATCTACTAGTGATCTATGACTGATCTGTACATGATCTACA
DNA 2: TGTAGATCATGTACAGATCAGTCATAGATCACTAGTAGATCTGTA
**Q.** What does the source list for B1?
**A.** binding result (hcGAS-FL (D191R)): binds; binding result (hcGAS-FL): binds
